Four molecules from publication PMC5750209, “Structural basis for DNA 3′-end processing by human tyrosyl-DNA phosphodiesterase 1” can be followed below.

For data set [1], the target named is T1, Tdp1(Δ148) (Homo sapiens, UniProt Q9NUW8 149-608). Kind of data set: X-ray crystal structure (3.18 Å); product complex; Cross-linking: 10 mM Tris-HCl pH 7.5, 100 mM KCl, 5 µM each, 15 min room temperature then 15 min on ice, UV 312 nm 30 min on ice. Crystal complex: 50 mM HEPES pH 7.8, 50 mM NaCl, on ice, 110 µM complex. As to conditions: protein: recombinant; tags: N-terminal His6; chain copies: 2; blunt, self-complementary, 2 copies of one strand.

Data set [2] concerns the target Tdp1(Δ148) H263A (Homo sapiens, UniProt Q9NUW8 149-608, H263A). Briefly: UV cross-linking (312 nm), SDS-PAGE and MS; cross-link via F259; Cross-linking: 10 mM Tris-HCl pH 7.5, 100 mM KCl, 5 µM each, 15 min room temperature then 15 min on ice, UV 312 nm 30 min on ice. Crystal complex: 50 mM HEPES pH 7.8, 50 mM NaCl, on ice, 110 µM complex. The note with it: protein: recombinant; tags: N-terminal His6; label: 5' 32P (tracer); 3' biotin-TEG; single strand.

The target of data set [3] is T1, Tdp1(Δ148). Kind of data set: X-ray crystal structure (2.04 Å); 3'-phosphorylated product complex; Cross-linking: 10 mM Tris-HCl pH 7.5, 100 mM KCl, 5 µM each, 15 min room temperature then 15 min on ice, UV 312 nm 30 min on ice. Crystal complex: 50 mM HEPES pH 7.8, 50 mM NaCl, on ice, 110 µM complex. The note with it: protein: recombinant; tags: N-terminal His6; chain copies: 2; blunt, self-complementary, 2 copies of one strand.

T1 sequence (Q9NUW8 149-608, stated change not applied): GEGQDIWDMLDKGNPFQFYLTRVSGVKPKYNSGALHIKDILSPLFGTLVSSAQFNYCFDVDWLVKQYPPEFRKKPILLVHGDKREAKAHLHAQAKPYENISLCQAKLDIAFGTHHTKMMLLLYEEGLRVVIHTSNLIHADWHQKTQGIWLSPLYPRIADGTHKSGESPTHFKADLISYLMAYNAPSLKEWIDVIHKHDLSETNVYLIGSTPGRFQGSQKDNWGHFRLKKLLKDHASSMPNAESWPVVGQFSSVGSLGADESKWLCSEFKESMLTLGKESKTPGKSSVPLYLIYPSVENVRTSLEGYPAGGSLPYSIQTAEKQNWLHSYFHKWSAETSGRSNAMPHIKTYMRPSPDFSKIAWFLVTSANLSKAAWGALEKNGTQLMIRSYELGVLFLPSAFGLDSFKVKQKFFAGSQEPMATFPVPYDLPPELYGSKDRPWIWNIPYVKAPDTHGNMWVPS
Tdp1(Δ148) H263A, sequence (Q9NUW8 149-608 H263A): as the sequence (Q9NUW8 149-608, stated change not applied) above, with H115A counted along it

B1: -2T 12-mer duplex (dsDNA)
DNA 1: CAATGCGCATTG
DNA 2: CAATGCGCATTG
Take B1: the binding result in data set [1] is “binds”.

B2: 5IdU(-3) 20-mer (ssDNA)
DNA: GTAGAGGATCTAAAAGAUTT
modifications: 5-iodouracil (5-iodo-dU) at nt 18
As for B2, the binding result in data set [2] was “binds”.

B3: -2G 12-mer duplex (dsDNA)
DNA 1: CACTGCGCAGTG
DNA 2: CACTGCGCAGTG
Consider B3, for which the binding result in data set [3] was “binds”.

B4: 5IdU(-2) 20-mer (ssDNA)
DNA: GTAGAGGATCTAAAAGACUT
modifications: 5-iodouracil (5-iodo-dU) at nt 19
In the case of B4, the binding result in data set [2] was “binds”.
